These results are taken from publication PMC3667823.

Broadly, the stoichiometry N is the number of molecules, sites or subunits per partner or assembly.

The test addresses Recombinant HSP with AVI and HIS tag (16 kDa heat shock protein of Mycobacterium tuberculosis) (Mycobacterium tuberculosis) (UniProt P9WMK1). In words: native MS.

On to “Recombinant HSP with AVI and HIS tag (16 kDa heat shock protein of Mycobacterium tuberculosis) (from UniProt P9WMK1 1-144) (natural protein)”, for which the stoichiometry N turned out to be 2.
